Values quoted from earlier work, collected in PMC8223436.

Target: HER2 domain IV (Homo sapiens) (UniProt P04626)

## Trastuzumab
  Kd: 560 pM
